Results published in paper PMC10681232.

Columns and labels:
[1] = molecular target: Flag-tagged Atlantic halibut Aqp1ab1 wild-type canonical channel (Flag-HhAqp1ab1-WT) (Atlantic halibut (Hippoglossus hippoglossus))
[2] = molecular target: Flag-tagged Senegalese sole Aqp1ab2 wild-type canonical channel (Flag-SsAqp1ab2-WT) (Senegalese sole (Solea senegalensis))

| Substance | inhibition of osmotic water permeability (Pf) of X. laevis oocytes coexpressing HhAqp1ab1 v1 and HhAqp1ab1-WT in ratios from 0.05 to 50, untagged forms, with respect to the canonical channel only [1] [%] | inhibition of osmotic water permeability (Pf) of X. laevis oocytes expressing SsAqp1ab2-WT plus YwhazLb, treated with FSK, after injecting equal cRNA amounts of WT and SsAqp1ab2 v2, untagged forms [2] [%] |
| --- | --- | --- |
| HA-tagged Atlantic halibut Aqp1ab1 splice variant 1 (HA-HhAqp1ab1_v1) | 94 | – |
| HA-tagged Senegalese sole Aqp1ab2 splice variant 2 (HA-SsAqp1ab2_v2) (natural protein) | – | 84 |
